Where two headings read alike, the source gives them in different places.
Tests used:
FGFR3 (plate-coated) [1] = molecular target: T1, FGFR3 (plate-coated) (UniProt P22607 23-375); test: ELISA: FGFR3 coated at 2 ug/ml, protein titrated, bound protein detected with NKG2D-Fc and anti-Fc-HRP
T1 construct: also called Fibroblast Growth Factor Receptor 3
T1 sequence (looked up): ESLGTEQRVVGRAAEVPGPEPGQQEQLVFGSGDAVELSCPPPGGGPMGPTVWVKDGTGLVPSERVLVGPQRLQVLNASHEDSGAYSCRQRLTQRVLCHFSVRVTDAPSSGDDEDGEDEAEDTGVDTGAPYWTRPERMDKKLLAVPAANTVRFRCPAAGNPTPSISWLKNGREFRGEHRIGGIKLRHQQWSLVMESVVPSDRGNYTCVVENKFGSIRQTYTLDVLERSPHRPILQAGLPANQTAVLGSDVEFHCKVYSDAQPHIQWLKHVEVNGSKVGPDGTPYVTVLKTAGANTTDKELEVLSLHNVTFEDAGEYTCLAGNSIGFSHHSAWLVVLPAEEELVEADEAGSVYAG

human NKG2D-Fc [2] = molecular target: T2, human NKG2D-Fc (human, UniProt P26718 78-216, limits assumed); test: ELISA: protein captured on FGFR3 detected with NKG2D-Fc
T2 construct: also called natural NKG2D-Fc; not shown: Fc part
T2 sequence (looked up): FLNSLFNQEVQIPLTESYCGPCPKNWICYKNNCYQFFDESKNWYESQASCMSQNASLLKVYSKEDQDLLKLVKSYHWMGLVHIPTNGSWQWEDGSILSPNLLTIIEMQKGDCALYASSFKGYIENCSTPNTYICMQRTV

Y152A NKG2D-Fc = molecular target: T3, Y152A NKG2D-Fc (human, UniProt P26718 78-216); test: phage ELISA: phage clone titrated against Y152A NKG2D
T3 construct: Biotinylated for the phage selections; also called non-natural Y152A NKG2D; not shown: Fc part; not described
T3 sequence (looked up): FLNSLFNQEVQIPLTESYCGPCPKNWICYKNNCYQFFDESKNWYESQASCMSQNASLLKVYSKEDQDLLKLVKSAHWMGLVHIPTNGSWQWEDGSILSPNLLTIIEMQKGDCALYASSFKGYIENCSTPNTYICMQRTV

[3] = molecular target: T4, biotinylated human NKG2D (Example 3) (human, UniProt P26718 78-216, limits assumed, biotinylated (site not stated)); test: biolayer interferometry (Octet), Kd = kOFF/kON
T4 construct: also called recombinant biotinylated NKG2D; surface coated biotinylated human NKG2D
T4 sequence (looked up): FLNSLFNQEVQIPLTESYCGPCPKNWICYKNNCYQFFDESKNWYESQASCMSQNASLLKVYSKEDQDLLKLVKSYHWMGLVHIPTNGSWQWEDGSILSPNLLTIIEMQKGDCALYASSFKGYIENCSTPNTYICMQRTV

[4] = molecular target: T4, biotinylated human NKG2D (Example 3); test: biolayer interferometry (Octet), biotinylated human NKG2D on the surface, 100 nM analyte
NKG2D on NKL cells = molecular target: T5, NKG2D on NKL cells (human, UniProt P26718 1-216); test: cell-based or functional assay
T5 sequence (looked up): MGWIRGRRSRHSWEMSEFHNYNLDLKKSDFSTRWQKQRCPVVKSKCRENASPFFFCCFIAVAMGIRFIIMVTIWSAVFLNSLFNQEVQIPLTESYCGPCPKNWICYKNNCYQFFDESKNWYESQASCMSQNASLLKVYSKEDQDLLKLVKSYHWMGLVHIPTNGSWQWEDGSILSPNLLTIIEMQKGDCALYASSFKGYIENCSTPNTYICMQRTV

murine NKG2D-Fc = molecular target: T6, murine NKG2D-Fc (mouse, UniProt O54709 94-232, limits assumed); test: competition ELISA: variant titrated against mouse NKG2D-Fc binding to plate-coated MICA (competitor), detected with anti-Fc-HRP
T6 construct: also called mouse NKG2D-Fc; not shown: Fc part; not described
T6 sequence (looked up): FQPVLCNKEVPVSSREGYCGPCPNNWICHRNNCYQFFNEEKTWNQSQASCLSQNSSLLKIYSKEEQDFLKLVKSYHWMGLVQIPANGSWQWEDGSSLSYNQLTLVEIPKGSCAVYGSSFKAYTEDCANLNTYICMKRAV

human NKG2D-Fc [5] = molecular target: T2, human NKG2D-Fc; test: phage ELISA: phage-displayed ULBP3 α1-α2 variant titrated against NKG2D (the legend gives no form; Example 5 selected on human NKG2D-Fc)
FGFR3 (plate-coated) [6] = molecular target: T1, FGFR3 (plate-coated); test: ELISA: FGFR3 coated at 2 ug/ml, protein titrated, bound protein detected with NKG2D-Fc and anti-Fc-HRP; remark: listed apart in the source
human NKG2D-Fc [7] = molecular target: T2, human NKG2D-Fc; test: phage ELISA: phage-displayed ULBP2 α1-α2 variant titrated against NKG2D (the legend gives no form; Example 5 selected on human NKG2D-Fc)

B1: ULBP2-α3-iFv.2 (designed binder)
chain: EPHSLCYDITVIPKFRPGPRWCAVQGQVDEKTFLHYDCGNKTVTPVSPLGKKLNVTTAWKAQNPVLREVVDILTEQLRDIQLENYTPKEPLTLQARMSCEQKAEGHSSGSWQFSFDGQIFLLFDSEKRMWTTVHPGARKMKEKWENDKVVAMSFHYFSMGDCIGWLEDFLMGMDSTLEPSAGAPPMVQVTRSEASGGSGDRVTITCRASQDVSTAVAWYQQKPGKAPKLLIYSASFLYSGVPSRFSGSGSGTDFTLTISSLQPEDFATYYCQQSYTTPPTFGQGTKVEIKGGSSRSSSSGGGGSGGGGEVQLVESGGGLVQPGGSLRLSCAASGFTFTSTGISWVRQAPGKGLEWVGRIYPTNGSTNYADSVKGRFTISADTSKNTAYLQMNSLRAEDTAVYYCARTYGIYDLYVDYTEYVMDYWGQGTLVTVSSGGSSRSSSSGGGGSGGGGDIQMTQSPSSLSASGGSGQITVTCRASGFYPWNITLSWRQDGVSLSHDTQQWGDVLPDGQGTYQTWVATRISQGEEQRFTCYMEHSGQHSTHPVPSGKGSHHHHHH
notes: His-tagged, monomeric, insect cells; also called NKG2DL-α3-iFv.2 (ULBP2)
EC50 (read off the curve) (FGFR3 (plate-coated) [1]): ~2 nM | binding result (human NKG2D-Fc [2]): binds

B2: MICA25.17 (ligand)
chain: EPHSLRYNLTVLSWDGSVQSGFLTEVHLDGQPFLRCDRQKCRAKPQGQWAEDVLGNKTWDRETRDLTGWGTTLLMTLAHIKDQKEGLHSLQEIRVCEIHEDNSTRSSQHFYYDGELFLSQNLETLEWTMPQSSRAQTLAMNVRNFLKEDAMETDIGYRLMRADCLSELRRYLKSGVVLRRTV
notes: Tested as phage clone (M13 pIII fusion)
EC50 (read off the curve) (Y152A NKG2D-Fc): ~0.005 phage OD

B3: MICA25.18 (ligand)
chain: EPHSLRYNLTVLSWDGSVQSGFLTEVHLDGQPFLRCDRQKCRAKPQGQWAEDVLGNKTWDRETRDLTGWGTFLRMTLAHIKDQKEGLHSLQEIRVCEIHEDNSTRSSQHFYYDGELFLSQNLETLEWTMPQSSRAQTLAMNVRNFLKEDAMETDRSGLLMRADCLSELRRYLKSGVVLRRTV
notes: as for B2
EC50 (read off the curve) (Y152A NKG2D-Fc): ~0.01 phage OD

B4: WED-MICA (ligand)
chain: EPHSLRYNLTVLSWDGSVQSGFLTEVHLDGQPFLRCDRQKCRAKPQGQWAEDVLGNKTWDRETRDLTGWGKDLRMTLAHIKDQKEGLHSLQEIRVCEIHEDNSTRSSQHFYYDGELFLSQNLETKEWTMPQSSRAQTLAMNVRNFLKEDAMETDTHYHAMHADCLQELRRYLKSGVVLRRTVPPMVQVTRSEASGGSGDRVTITCRASQDVSTAVAWYQQKPGKAPKLLIYSASFLYSGVPSRFSGSGSGTDFTLTISSLQPEDFATYYCQQSYTTPPTFGQGTKVEIKGGSSRSSSSGGGGSGGGGEVQLVESGGGLVQPGGSLRLSCAASGFTFTSTGISWVRQAPGKGLEWVGRIYPTNGSTNYADSVKGRFTISADTSKNTAYLQMNSLRAEDTAVYYCARTYGIYDLYVDYTEYVMDYWGQGTLVTVSSGGSSRSSSSGGGGSGGGGDIQMTQSPSSLSASGGSGQITVTCRASGFYPWNITLSWRQDGVSLSHDTQQWGDVLPDGQGTYQTWVATRISQGEEQRFTCYMEHSGQHSTHPVPSGKGSHHHHHH
notes: also called WED-α1-α2 domains; WED soluble MICA protein
apparent Kd (pooled screen) [3]: 5.9 nM | apparent koff (pooled screen) [4]: 0.0017 s⁻¹ | apparent kon (pooled screen) [4]: 290000 M⁻¹ s⁻¹

B5: α1-α2 variant 18 (ligand)
chain: EPHSLRYNLTVLSWDGSVQPGFLTEVHLDGQPFLRCDRQKCRAKPQGQWAEDVLGNKTWDRETRDLTLWGKDLRMTLAHIKDQKEGLHSLQEIRVCEIHEDNSTRSSQHFYYDGELFLSQNLETLEWTMPQSSRAQTLAMNVRNFLKEDAMETDTHYHAMRADCLQELRRYLKSGVVLRRTVPPMVQVTRSEASGGSGDRVTITCRASQDVSTAVAWYQQKPGKAPKLLIYSASFLYSGVPSRFSGSGSGTDFTLTISSLQPEDFATYYCQQSYTTPPTFGQGTKVEIKGGSSRSSSSGGGGSGGGGEVQLVESGGGLVQPGGSLRLSCAASGFTFTSTGISWVRQAPGKGLEWVGRIYPTNGSTNYADSVKGRFTISADTSKNTAYLQMNSLRAEDTAVYYCARTYGIYDLYVDYTEYVMDYWGQGTLVTVSSGGSSRSSSSGGGGSGGGGDIQMTQSPSSLSASGGSGQITVTCRASGFYPWNITLSWRQDGVSLSHDTQQWGDVLPDGQGTYQTWVATRISQGEEQRFTCYMEHSGQHSTHPVPSGKGSHHHHHH
NK cell-mediated lysis of FGFR3-expressing P815 target cells (calcein release, NKL cells) (NKG2D on NKL cells): ~15 fold more killing than WT at 0.78 nM | IC50 (read off the curve) (murine NKG2D-Fc): ~1 nM

B6: α1-α2 variant 17 (ligand)
chain: EPHSLRYNLTVLSWDGSVQSGFLTEVHLDGQPFLRCDRQKCRAKPQGQWAEDVLGNKTWDRETRDLTLWGKDLRMTLAHIKDQKEGLHSLQEIRVCEIHEDNSTRSSQHFYYDGELFLSQNLETLEWTMPQSSRAQTLAMNVRNFLKEDAMETDTHYHAMRADCLQELRRYLKSGVVLRRTVPPMVQVTRSEASGGSGDRVTITCRASQDVSTAVAWYQQKPGKAPKLLIYSASFLYSGVPSRFSGSGSGTDFTLTISSLQPEDFATYYCQQSYTTPPTFGQGTKVEIKGGSSRSSSSGGGGSGGGGEVQLVESGGGLVQPGGSLRLSCAASGFTFTSTGISWVRQAPGKGLEWVGRIYPTNGSTNYADSVKGRFTISADTSKNTAYLQMNSLRAEDTAVYYCARTYGIYDLYVDYTEYVMDYWGQGTLVTVSSGGSSRSSSSGGGGSGGGGDIQMTQSPSSLSASGGSGQITVTCRASGFYPWNITLSWRQDGVSLSHDTQQWGDVLPDGQGTYQTWVATRISQGEEQRFTCYMEHSGQHSTHPVPSGKGSHHHHHH
NK cell-mediated lysis of FGFR3-expressing P815 target cells (calcein release, NKL cells) (NKG2D on NKL cells): ~15 fold more killing than WT at 0.78 nM | IC50 (read off the curve) (murine NKG2D-Fc): ~1 nM

B7: ULBP3 R162G α1-α2 domain (phage-displayed library parent) (ligand)
chain: AAEPHSLWYNFTIIHLPRHGQQWCEVQSQVDQKNFLSYDCGSDKVLSMGHLEEQLYATDAWGKQLEMLREVGQRLRLELADTELEDFTPSGPLTLQVRMSCESEADGYIRGSWQFSFDGRKFLLFDSNNRKWTVVHAGARRMKEKWEKDSGLTTFFKMVSMGDCKSWLRDFLMHRKKRLEPTAP
binding result (human NKG2D-Fc [5]): binds

B8: MICA-α3-iFv.1 (designed binder)
chain: EPHSLRYNLTVLSWDGSVQSGFLTEVHLDGQPFLRCDRQKCRAKPQGQWAEDVLGNKTWDRETRDLTGNGKDLRMTLAHIKDQKEGLHSLQEIRVCEIHEDNSTRSSQHFYYDGELFLSQNLETKEWTMPQSSRAQTLAMNVRNFLKEDAMKTKTHYHAMHADCLQELRRYLKSGVVLRRTVPPMVQVTRSEASGDRVTITCRASQDVSTAVAWYQQKPGKAPKLLIYSASFLYSGVPSRFSGSGSGTDFTLTISSLQPEDFATYYCQQSYTTPPTFGQGTKVEIKGGSSRSSSSGGGGSGGGGEVQLVESGGGLVQPGGSLRLSCAASGFTFTSTGISWVRQAPGKGLEWVGRIYPTNGSTNYADSVKGRFTISADTSKNTAYLQMNSLRAEDTAVYYCARTYGIYDLYVDYTEYVMDYWGQGTLVTVSSGGSSRSSSSGGGGSGGGGDIQMTQSPSSLSASGQITVTCRASGFYPWNITLSWRQDGVSLSHDTQQWGDVLPDGQGTYQTWVATRISQGEEQRFTCYMEHSGQHSTHPVPSGKGSHHHHHH
notes: His-tagged, monomeric, made in insect cells; also called sMICA-α3-iFv.1
EC50 (read off the curve) (FGFR3 (plate-coated) [6]): ~1 nM | binding result (human NKG2D-Fc [2]): binds

B9: V151D (ligand)
α1-α2 domain, fused to pIII of M13 phage: AAEPHSLSYDITVIPKFRPGPRWCAVQGQVDEKTFLHYDCGNKTVTPVSPLGKKLNVTTAWKAQNPVLREVVDILTEQLRDIQLENYTPKEPLTLQARMSCEQKAEGHSSGSWQFSFDGQIFLLFDSEKRMWTTVHPGARKMKEKWENDKDVAMSFHYFSMGDCIGWLEDFLMGMDSTLEPSAGAP
EC50 (read off the curve) (human NKG2D-Fc [7]): ~0.01 OD268 (phage)

Reference: US20180134765A1 (AVIDBIOTICS, published 2018)
